Measured values: publication PMC13189624, “MORC2 mediates transcriptional regulation through liquid-liquid phase separation” (eLife, 2026)

B1: selenomethionine MORC2 CC3 domain (residues 901-1003), as crystallised (domain or fragment, human, UniProt Q9Y6X9 901-1003, looked up)
chain: LSTNHETIDLLVQILRNCLRYFLPPSFPISKKQLSAMNSDELISFPLKEYFKQYEVGLQNLCNSYQSRADSRAKASEESLRTSERKLRETEEKLQKLRTNIVA
modifications: selenomethionine (SeMet) in place of methionine
notes: MORC2, human, UniProt Q9Y6X9, residues 901-1003; The methods say 'MORC2 CC3 fused with a GPGS linker'; also called CC3 dimer; source: E. coli B834 in M9 medium with selenomethionine, purified (SEC, Superdex 75)
B2: full-length human MORC2 (MORC2FL, residues 1-1032) (natural protein, UniProt Q9Y6X9 1-1032, looked up)
chain: MAFTNYSSLNRAQLTFEYLHTNSTTHEFLFGALAELVDNARDADATRIDIYAERREDLRGGFMLCFLDDGAGMDPSDAASVIQFGKSAKRTPESTQIGQYGNGLKSGSMRIGKDFILFTKKEDTMTCLFLSRTFHEEEGIDEVIVPLPTWNARTREPVTDNVEKFAIETELIYKYSPFRTEEEVMTQFMKIPGDSGTLVIIFNLKLMDNGEPELDIISNPRDIQMAETSPEGTKPERRSFRAYAAVLYIDPRMRIFIHGHKVQTKRLSCCLYKPRMYKYTSSRFKTRAEQEVKKAEHVARIAEEKAREAESKARTLEVRLGGDLTRDSRVMLRQVQNRAITLRREADVKKRIKEAKQRALKEPKELNFVFGVNIEHRDLDGMFIYNCSRLIKMYEKVGPQLEGGMACGGVVGVVDVPYLVLEPTHNKQDFADAKEYRHLLRAMGEHLAQYWKDIAIAQRGIIKFWDEFGYLSANWNQPPSSELRYKRRRAMEIPTTIQCDLCLKWRTLPFQLSSVEKDYPDTWVCSMNPDPEQDRCEASEQKQKVPLGTFRKDMKTQEEKQKQLTEKIRQQQEKLEALQKTTPIRSQADLKKLPLEVTTRPSTEEPVRRPQRPRSPPLPAVIRNAPSRPPSLPTPRPASQPRKAPVISSTPKLPALAAREEASTSRLLQPPEAPRKPANTLVKTASRPAPLVQQLSPSLLPNSKSPREVPSPKVIKTPVVKKTESPIKLSPATPSRKRSVAVSDEEEVEEEAERRKERCKRGRFVVKEEKKDSNELSDSAGEEDSADLKRAQKDKGLHVEVRVNREWYTGRVTAVEVGKHVVRWKVKFDYVPTDTTPRDRWVEKGSEDVRLMKPPSPEHQSLDTQQEGGEEEVGPVAQQAIAVAEPSTSECLRIEPDTTALSTNHETIDLLVQILRNCLRYFLPPSFPISKKQLSAMNSDELISFPLKEYFKQYEVGLQNLCNSYQSRADSRAKASEESLRTSERKLRETEEKLQKLRTNIVALLQKVQEDIDINTDDELDAYIEDLITKGD
notes: MORC2, human, UniProt Q9Y6X9, residues 1-1032; cDNA amplified from a HeLa cDNA library; The plasmid is called MORC2-6xHis; Construct details are in Supplementary file 2; source: HEK293F, transiently transfected, purified (Ni-NTA, Superose 6 gel filtration), nucleic acid-free
B3: MORC2 CTDΔCW (residues 537-1032) (domain or fragment, human, UniProt Q9Y6X9 537-1032, looked up)
chain: EASEQKQKVPLGTFRKDMKTQEEKQKQLTEKIRQQQEKLEALQKTTPIRSQADLKKLPLEVTTRPSTEEPVRRPQRPRSPPLPAVIRNAPSRPPSLPTPRPASQPRKAPVISSTPKLPALAAREEASTSRLLQPPEAPRKPANTLVKTASRPAPLVQQLSPSLLPNSKSPREVPSPKVIKTPVVKKTESPIKLSPATPSRKRSVAVSDEEEVEEEAERRKERCKRGRFVVKEEKKDSNELSDSAGEEDSADLKRAQKDKGLHVEVRVNREWYTGRVTAVEVGKHVVRWKVKFDYVPTDTTPRDRWVEKGSEDVRLMKPPSPEHQSLDTQQEGGEEEVGPVAQQAIAVAEPSTSECLRIEPDTTALSTNHETIDLLVQILRNCLRYFLPPSFPISKKQLSAMNSDELISFPLKEYFKQYEVGLQNLCNSYQSRADSRAKASEESLRTSERKLRETEEKLQKLRTNIVALLQKVQEDIDINTDDELDAYIEDLITKGD
notes: MORC2, human, UniProt Q9Y6X9, residues 537-1032; Bacterial constructs were made with MBP or Trx fusion proteins; Which one was used here, and whether it was kept, is in Supplementary file 2; source: Escherichia coli, purified
B4: MORC2 CC3 domain (residues 901-1003) (domain or fragment, human, UniProt Q9Y6X9 901-1003, looked up)
chain: LSTNHETIDLLVQILRNCLRYFLPPSFPISKKQLSAMNSDELISFPLKEYFKQYEVGLQNLCNSYQSRADSRAKASEESLRTSERKLRETEEKLQKLRTNIVA
notes: MORC2, human, UniProt Q9Y6X9, residues 901-1003; Cloned in a modified pET32m vector (Trx-tag); Used unlabelled for SEC-SLS and uniformly 15N-labelled for the NMR titration; The methods say fragments carry a GPGS linker; also called MORC2^901-1003; coiled-coil 3; source: E. coli, purified (Ni-NTA, SEC); 15N-labelled from M9 medium for NMR
B5: Trx-tagged MORC2 901-1032 Y921A (domain or fragment, human, UniProt Q9Y6X9 901-1032, looked up)
chain: LSTNHETIDLLVQILRNCLRAFLPPSFPISKKQLSAMNSDELISFPLKEYFKQYEVGLQNLCNSYQSRADSRAKASEESLRTSERKLRETEEKLQKLRTNIVALLQKVQEDIDINTDDELDAYIEDLITKGD
notes: MORC2, human, UniProt Q9Y6X9, residues 901-1032 with Y921A; the same legend also prints residue 921 as F921; source: E. coli, purified
B6: Trx-tagged MORC2 901-1032 L911Q (domain or fragment, human, UniProt Q9Y6X9 901-1032, looked up)
chain: LSTNHETIDLQVQILRNCLRYFLPPSFPISKKQLSAMNSDELISFPLKEYFKQYEVGLQNLCNSYQSRADSRAKASEESLRTSERKLRETEEKLQKLRTNIVALLQKVQEDIDINTDDELDAYIEDLITKGD
notes: MORC2, human, UniProt Q9Y6X9, residues 901-1032 with L911Q; source: E. coli, purified
B7: MORC2 CC3-IBD (residues 901-1032) (domain or fragment, human, UniProt Q9Y6X9 901-1032, looked up)
chain: LSTNHETIDLLVQILRNCLRYFLPPSFPISKKQLSAMNSDELISFPLKEYFKQYEVGLQNLCNSYQSRADSRAKASEESLRTSERKLRETEEKLQKLRTNIVALLQKVQEDIDINTDDELDAYIEDLITKGD
notes: MORC2, human, UniProt Q9Y6X9, residues 901-1032; The legend names no Trx tag on it, and it may be the same as the Trx-tagged m4; The methods say fragments carry a GPGS linker; Construct details are in Supplementary file 2; also called MORC2^901-1032
B8: Trx-tagged MORC2 901-1032 F951Q (domain or fragment, human, UniProt Q9Y6X9 901-1032, looked up)
chain: LSTNHETIDLLVQILRNCLRYFLPPSFPISKKQLSAMNSDELISFPLKEYQKQYEVGLQNLCNSYQSRADSRAKASEESLRTSERKLRETEEKLQKLRTNIVALLQKVQEDIDINTDDELDAYIEDLITKGD
notes: MORC2, human, UniProt Q9Y6X9, residues 901-1032 with F951Q; source: E. coli, purified
B9: Trx-tagged MORC2 901-1032 F922Q (domain or fragment, human, UniProt Q9Y6X9 901-1032, looked up)
chain: LSTNHETIDLLVQILRNCLRYQLPPSFPISKKQLSAMNSDELISFPLKEYFKQYEVGLQNLCNSYQSRADSRAKASEESLRTSERKLRETEEKLQKLRTNIVALLQKVQEDIDINTDDELDAYIEDLITKGD
notes: MORC2, human, UniProt Q9Y6X9, residues 901-1032 with F922Q; source: E. coli, purified
B10: wild-type MORC2 901-1032 with Trx-tag (domain or fragment, human, UniProt Q9Y6X9 901-1032, looked up)
chain: LSTNHETIDLLVQILRNCLRYFLPPSFPISKKQLSAMNSDELISFPLKEYFKQYEVGLQNLCNSYQSRADSRAKASEESLRTSERKLRETEEKLQKLRTNIVALLQKVQEDIDINTDDELDAYIEDLITKGD
notes: MORC2, human, UniProt Q9Y6X9, residues 901-1032; Cloned in a modified pET32m vector with Trx-tag (14 kDa); also called WT MORC2^901-1032 (with Trx-tag); WT CC3-IBD; source: E. coli, purified (Ni-NTA, SEC)
B11: Trx-tagged MORC2 901-1032 L915Q (domain or fragment, human, UniProt Q9Y6X9 901-1032, looked up)
chain: LSTNHETIDLLVQIQRNCLRYFLPPSFPISKKQLSAMNSDELISFPLKEYFKQYEVGLQNLCNSYQSRADSRAKASEESLRTSERKLRETEEKLQKLRTNIVALLQKVQEDIDINTDDELDAYIEDLITKGD
notes: MORC2, human, UniProt Q9Y6X9, residues 901-1032 with L915Q; source: E. coli, purified
B12: Trx-tagged MORC2 901-1032 L958Q (domain or fragment, human, UniProt Q9Y6X9 901-1032, looked up)
chain: LSTNHETIDLLVQILRNCLRYFLPPSFPISKKQLSAMNSDELISFPLKEYFKQYEVGQQNLCNSYQSRADSRAKASEESLRTSERKLRETEEKLQKLRTNIVALLQKVQEDIDINTDDELDAYIEDLITKGD
notes: MORC2, human, UniProt Q9Y6X9, residues 901-1032 with L958Q; source: E. coli, purified
B13: Trx-tagged MORC2 901-1032 I908Q (domain or fragment, human, UniProt Q9Y6X9 901-1032, looked up)
chain: LSTNHETQDLLVQILRNCLRYFLPPSFPISKKQLSAMNSDELISFPLKEYFKQYEVGLQNLCNSYQSRADSRAKASEESLRTSERKLRETEEKLQKLRTNIVALLQKVQEDIDINTDDELDAYIEDLITKGD
notes: MORC2, human, UniProt Q9Y6X9, residues 901-1032 with I908Q; source: E. coli, purified
B14: Trx-tagged MORC2 901-1032 Y954A (domain or fragment, human, UniProt Q9Y6X9 901-1032, looked up)
chain: LSTNHETIDLLVQILRNCLRYFLPPSFPISKKQLSAMNSDELISFPLKEYFKQAEVGLQNLCNSYQSRADSRAKASEESLRTSERKLRETEEKLQKLRTNIVALLQKVQEDIDINTDDELDAYIEDLITKGD
notes: MORC2, human, UniProt Q9Y6X9, residues 901-1032 with Y954A; source: E. coli, purified
B15: MORC2 fragment 744-1032 (domain or fragment, human, UniProt Q9Y6X9 744-1032, looked up)
chain: DEEEVEEEAERRKERCKRGRFVVKEEKKDSNELSDSAGEEDSADLKRAQKDKGLHVEVRVNREWYTGRVTAVEVGKHVVRWKVKFDYVPTDTTPRDRWVEKGSEDVRLMKPPSPEHQSLDTQQEGGEEEVGPVAQQAIAVAEPSTSECLRIEPDTTALSTNHETIDLLVQILRNCLRYFLPPSFPISKKQLSAMNSDELISFPLKEYFKQYEVGLQNLCNSYQSRADSRAKASEESLRTSERKLRETEEKLQKLRTNIVALLQKVQEDIDINTDDELDAYIEDLITKGD
notes: MORC2, human, UniProt Q9Y6X9, residues 744-1032; The expression system and tags are in Supplementary file 2
B16: Trx-901-975 (CC3 truncation) (domain or fragment, human, UniProt Q9Y6X9 901-975, looked up)
chain: LSTNHETIDLLVQILRNCLRYFLPPSFPISKKQLSAMNSDELISFPLKEYFKQYEVGLQNLCNSYQSRADSRAKA
notes: MORC2, human, UniProt Q9Y6X9, residues 901-975; The Trx tag points to the bacterial pET32m-type vector; Construct details are in Supplementary file 2; also called truncated CC3 constructs (residues 901-975); CC3 N-terminal region

Molecular target: the molecule itself
Test: crystal structure; SeMet CC3 (901-1003); sitting drop, 0.1 M citric acid pH 3.5, 25% w/v PEG 3350, 16 °C; 3.1 Å
B1: binds.

Molecular target: the molecule itself
Test: SEC-MALS; size-exclusion chromatography with static light scattering (miniDawn); MORC2FL at 70 μM; 50 mM Tris-HCl pH 8.0, 1000 mM NaCl, 1 mM EDTA, 1 mM DTT; no ATP; also run with 601 DNA
With B2 the “stoichiometry N” value was 2.

Molecular target: the molecule itself
Test: SEC-MALS; size-exclusion chromatography with static light scattering (miniDawn); fragments at 70 μM; Superdex 200 increase or Superose 6 increase; 50 mM Tris-HCl pH 8.0, 150 mM NaCl, 1 mM EDTA, 1 mM DTT
For B3, the “stoichiometry N” value was 2. B4 was tested, and the “stoichiometry N” value was 2. B5: binds. B6: binds. For B7, the “stoichiometry N” value was 2. B8: binds. B9: binds. For B10, the “stoichiometry N” value was 2. B11: binds. B12: binds. B13: binds. B14: binds. B15 was tested, and the “stoichiometry N” value was 2. For B16, the “stoichiometry N” value was 2.
